± gives the standard deviation of the averaged measurements.
System: ATP
Test: switch fluorescence ratio, 500 uM ATP over buffer (Cy3 cluster intensity, sum of 5 cycles each) (fold (ratio)); higher = stronger signal-on switching upon ATP binding; sequences stand for … in TCGTCGGCAGCGTCAGATGTGTATAAGAGACAGTTTTTTTTTTTTTTTTTTTTTTTTT…TC
Conditions: aptamer strand: ATP DNA aptamer (quencher-CACCTGGGGGAGTATTGCGGAGGAAGG + anchor), 100 nM annealed; ATP concentration: 500 uM
In short: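 Clusters with intensities outside 100-1000 RFU were excluded. The remaining Cy3-labelled switching-strand clusters on a modified Illumina MiSeq flow-cell had been annealed to 100 nM quencher-labelled ATP aptamer and imaged in selection buffer, then after 15 min with 500 uM ATP at 22 °C, for five cycles separated by NaOH stripping and re-annealing. The fluorescence ratio, averaged per switch-domain sequence, is each cluster's summed target-cycle Cy3 intensity over its summed buffer-cycle Cy3 intensity.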
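Further: ATP exposure 15 min at 22 °C before imaging.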

TTTGATGTGC gave a switch fluorescence ratio of 1.07 ± 0.064.

Work on TTTGATGTTG yielded a switch fluorescence ratio of 0.976 ± 0.033.

Sequence TTTGATTTAG has a switch fluorescence ratio of 0.989 ± 0.026.

TTTGCAAATT showed a switch fluorescence ratio of 1.03 ± 0.039.

Sequence TTTGCAAGTA has a switch fluorescence ratio of 1.2 ± 0.3.

With TTTGCAATAA the switch fluorescence ratio was 2.35 ± 1.7.

With TTTGCACAGC the switch fluorescence ratio was 0.997 ± 0.051.

TTTGCACTGT gave a switch fluorescence ratio of 0.998 ± 0.055.

In the case of TTTGCATCTT, the switch fluorescence ratio is reported as 0.9984 ± 0.0022.

In the case of TTTGCATGAT, the switch fluorescence ratio is reported as 0.982 ± 0.017.

In the case of TTTGCATTTG, the switch fluorescence ratio is reported as 1.03 ± 0.013.

For TTTGCCGCGG, the switch fluorescence ratio was 0.995 ± 0.023.

Sequence TTTGCCGGCG has a switch fluorescence ratio of 0.97337 ± 0.00069.

For TTTGCCGGTA, the switch fluorescence ratio was 1.01 ± 0.014.

In the case of TTTGCCTGTA, the switch fluorescence ratio is reported as 0.992 ± 0.032.

TTTGCCTT was tested, and the switch fluorescence ratio was 1.06 ± 0.051.

Sequence TTTGCGAACA has a switch fluorescence ratio of 1.06 ± 0.079.

For TTTGCGAGGT, the switch fluorescence ratio was 0.972 ± 0.026.

With TTTGCGCGCG the switch fluorescence ratio was 0.992 ± 0.021.

TTTGCGGAAT showed a switch fluorescence ratio of 1.05 ± 0.027.

In the case of TTTGCGGGTT, the switch fluorescence ratio is reported as 1 ± 0.057.

For TTTGCTAGTT, the switch fluorescence ratio was 0.988 ± 0.009.

With TTTGCTATAT the switch fluorescence ratio was 1.18 ± 0.33.

Work on TTTGCTGGAA yielded a switch fluorescence ratio of 0.995 ± 0.015.

In the case of TTTGCTTAGG, the switch fluorescence ratio is reported as 0.993 ± 0.037.

Work on TTTGCTTCGT yielded a switch fluorescence ratio of 1.04 ± 0.048.

TTTGCTTTGG gave a switch fluorescence ratio of 0.997 ± 0.019.

In the case of TTTGGACGTC, the switch fluorescence ratio is reported as 0.992 ± 0.037.

TTTGGAGGGA showed a switch fluorescence ratio of 1.48 ± 0.8.

TTTGGAGTGT showed a switch fluorescence ratio of 1.08 ± 0.12.

With TTTGGATCAG the switch fluorescence ratio was 1.01 ± 0.02.

For TTTGGATGAA, the switch fluorescence ratio was 1.05 ± 0.013.

For TTTGGATGCT, the switch fluorescence ratio was 1.05 ± 0.14.

For TTTGGCAAGG, the switch fluorescence ratio was 1.01 ± 0.054.

For TTTGGCATGC, the switch fluorescence ratio was 1.11 ± 0.14.

With TTTGGCATGG the switch fluorescence ratio was 1.024 ± 0.0073.

TTTGGCCAAA was tested, and the switch fluorescence ratio was 1.05 ± 0.046.

Sequence TTTGGCCAAG has a switch fluorescence ratio of 0.996 ± 0.029.

With TTTGGCCCCT the switch fluorescence ratio was 1 ± 0.03.

For TTTGGCGAAC, the switch fluorescence ratio was 1.02 ± 0.02.

For TTTGGCGGCG, the switch fluorescence ratio was 0.993 ± 0.067.

Work on TTTGGCGGGG yielded a switch fluorescence ratio of 0.999 ± 0.04.

TTTGGCGTTG showed a switch fluorescence ratio of 0.9881 ± 0.0086.

TTTGGCTATT was tested, and the switch fluorescence ratio was 0.976 ± 0.028.

Work on TTTGGCTTAT yielded a switch fluorescence ratio of 0.989 ± 0.022.

In the case of TTTGGGAAGG, the switch fluorescence ratio is reported as 0.985 ± 0.034.

TTTGGGACTT was tested, and the switch fluorescence ratio was 1.01 ± 0.035.

Work on TTTGGGAGGA yielded a switch fluorescence ratio of 1.02 ± 0.047.

In the case of TTTGGGATTT, the switch fluorescence ratio is reported as 1.04 ± 0.15.

TTTGGGGAAT was tested, and the switch fluorescence ratio was 1.02 ± 0.033.

TTTGGGGGCA gave a switch fluorescence ratio of 0.989 ± 0.041.

TTTGGGGGTG showed a switch fluorescence ratio of 1.02 ± 0.038.

For TTTGGGGTAC, the switch fluorescence ratio was 1.72 ± 1.3.

With TTTGGGGTAT the switch fluorescence ratio was 0.995 ± 0.028.

For TTTGGGTAGG, the switch fluorescence ratio was 1.03 ± 0.062.

TTTGGGTAGT was tested, and the switch fluorescence ratio was 1.04 ± 0.034.

Work on TTTGGGTGCA yielded a switch fluorescence ratio of 0.987 ± 0.038.

TTTGGGTGTC showed a switch fluorescence ratio of 0.979 ± 0.014.

TTTGGGTTCT showed a switch fluorescence ratio of 1.03 ± 0.031.

For TTTGGGTTTG, the switch fluorescence ratio was 1.01 ± 0.029.

Work on TTTGGTATAG yielded a switch fluorescence ratio of 0.975 ± 0.01.

Work on TTTGGTCAAG yielded a switch fluorescence ratio of 1.01 ± 0.016.

TTTGGTGGAT gave a switch fluorescence ratio of 0.9794 ± 0.0058.

In the case of TTTGGTTGAG, the switch fluorescence ratio is reported as 1 ± 0.047.

TTTGGTTGG gave a switch fluorescence ratio of 1.0076 ± 0.00057.

For TTTGGTTGTA, the switch fluorescence ratio was 0.965 ± 0.014.

For TTTGGTTTCA, the switch fluorescence ratio was 0.994 ± 0.013.

For TTTGGTTTGA, the switch fluorescence ratio was 1 ± 0.046.

With TTTGTAACAT the switch fluorescence ratio was 0.966 ± 0.047.

Work on TTTGTACGGG yielded a switch fluorescence ratio of 0.999 ± 0.036.

With TTTGTAGCAG the switch fluorescence ratio was 1.09 ± 0.028.

For TTTGTAGCCG, the switch fluorescence ratio was 1.01 ± 0.061.

Sequence TTTGTAGCTG has a switch fluorescence ratio of 1.4 ± 0.046.

In the case of TTTGTAGTAT, the switch fluorescence ratio is reported as 1.03 ± 0.1.

TTTGTATTAC was tested, and the switch fluorescence ratio was 1.32 ± 0.38.

TTTGTATTTT was tested, and the switch fluorescence ratio was 0.992 ± 0.026.

TTTGTCAGTA gave a switch fluorescence ratio of 0.989 ± 0.018.

TTTGTCCCG was tested, and the switch fluorescence ratio was 1.01 ± 0.044.

With TTTGTCGACC the switch fluorescence ratio was 0.992 ± 0.0055.

For TTTGTCGGGT, the switch fluorescence ratio was 0.994 ± 0.014.

For TTTGTCTAG, the switch fluorescence ratio was 1.022 ± 0.00058.

With TTTGTCTGGT the switch fluorescence ratio was 0.992 ± 0.017.

With TTTGTCTTTT the switch fluorescence ratio was 1.02 ± 0.045.

Work on TTTGTGAGT yielded a switch fluorescence ratio of 0.979 ± 0.017.

In the case of TTTGTGAGTA, the switch fluorescence ratio is reported as 1 ± 0.023.

TTTGTGGAGT gave a switch fluorescence ratio of 1 ± 0.021.

TTTGTGGGA gave a switch fluorescence ratio of 0.997 ± 0.021.

Work on TTTGTGGGCC yielded a switch fluorescence ratio of 1.03 ± 0.093.

Sequence TTTGTGGGCG has a switch fluorescence ratio of 0.932 ± 0.021.

TTTGTGGGG showed a switch fluorescence ratio of 0.978 ± 0.023.

In the case of TTTGTGGGGT, the switch fluorescence ratio is reported as 1.01 ± 0.047.

With TTTGTGGGTC the switch fluorescence ratio was 0.995 ± 0.043.

With TTTGTGGTTG the switch fluorescence ratio was 0.992 ± 0.032.

In the case of TTTGTGTCCG, the switch fluorescence ratio is reported as 0.946 ± 0.088.

TTTGTGTGGT showed a switch fluorescence ratio of 0.978 ± 0.017.

TTTGTGTGTA gave a switch fluorescence ratio of 0.9846 ± 0.0097.

Sequence TTTGTGTTCT has a switch fluorescence ratio of 0.9786 ± 0.0048.

For TTTGTGTTTA, the switch fluorescence ratio was 0.9791 ± 0.0042.

For TTTGTGTTTT, the switch fluorescence ratio was 1.03 ± 0.044.

TTTGTTAAAA showed a switch fluorescence ratio of 1.04 ± 0.061.

Work on TTTGTTACCG yielded a switch fluorescence ratio of 0.995 ± 0.012.

Sequence TTTGTTAGAA has a switch fluorescence ratio of 1.02 ± 0.012.

TTTGTTCCTT was tested, and the switch fluorescence ratio was 1.01 ± 0.04.

In the case of TTTGTTCTGG, the switch fluorescence ratio is reported as 1.49 ± 0.73.

TTTGTTGCAG was tested, and the switch fluorescence ratio was 0.994 ± 0.036.

For TTTGTTGCCT, the switch fluorescence ratio was 1.014 ± 0.0088.

TTTGTTGTGC showed a switch fluorescence ratio of 1.01 ± 0.016.

For TTTGTTTATA, the switch fluorescence ratio was 0.9992 ± 0.0034.

With TTTGTTTGAT the switch fluorescence ratio was 0.999 ± 0.034.

Sequence TTTGTTTTGT has a switch fluorescence ratio of 1.01 ± 0.051.

Work on TTTGTTTTTC yielded a switch fluorescence ratio of 1.02 ± 0.013.

TTTTAAAAAG was tested, and the switch fluorescence ratio was 1 ± 0.012.

TTTTAAAACG gave a switch fluorescence ratio of 1.04 ± 0.084.

Sequence TTTTAAACAC has a switch fluorescence ratio of 1.07 ± 0.11.

TTTTAAAGCT showed a switch fluorescence ratio of 1.09 ± 0.039.

Work on TTTTAACCCC yielded a switch fluorescence ratio of 1.26 ± 0.19.

For TTTTAACGTG, the switch fluorescence ratio was 0.979 ± 0.021.

With TTTTAACTTT the switch fluorescence ratio was 1.03 ± 0.052.

Work on TTTTAAGGAG yielded a switch fluorescence ratio of 1 ± 0.047.

TTTTAAGTTT showed a switch fluorescence ratio of 0.978 ± 0.027.

TTTTAATCTC showed a switch fluorescence ratio of 0.979 ± 0.024.

With TTTTAATGTG the switch fluorescence ratio was 1 ± 0.016.

TTTTACAAAA gave a switch fluorescence ratio of 0.981 ± 0.02.

TTTTACCACC was tested, and the switch fluorescence ratio was 1.22 ± 0.049.

TTTTACGCAC gave a switch fluorescence ratio of 1.81 ± 0.024.

TTTTACGGAT gave a switch fluorescence ratio of 1.01 ± 0.012.

With TTTTACGGGA the switch fluorescence ratio was 1.26 ± 0.41.

TTTTACGGGC gave a switch fluorescence ratio of 1.018 ± 0.0039.

In the case of TTTTACGGTG, the switch fluorescence ratio is reported as 0.978 ± 0.03.

Sequence TTTTACTCCG has a switch fluorescence ratio of 3.1 ± 1.9.

TTTTACTGTT was tested, and the switch fluorescence ratio was 1.12 ± 0.096.

TTTTACTT gave a switch fluorescence ratio of 0.998 ± 0.042.

TTTTAGAGT showed a switch fluorescence ratio of 0.988 ± 0.024.

In the case of TTTTAGATGA, the switch fluorescence ratio is reported as 0.966 ± 0.027.

TTTTAGCAAC was tested, and the switch fluorescence ratio was 1.2325 ± 0.0007.

TTTTAGCATT showed a switch fluorescence ratio of 0.992 ± 0.062.

Sequence TTTTAGCGGT has a switch fluorescence ratio of 0.974 ± 0.02.

For TTTTAGCTCT, the switch fluorescence ratio was 0.963 ± 0.015.

Sequence TTTTAGGCAC has a switch fluorescence ratio of 1.03 ± 0.018.

With TTTTAGGCCC the switch fluorescence ratio was 1.09 ± 0.073.

Sequence TTTTAGGCTG has a switch fluorescence ratio of 0.961 ± 0.027.

With TTTTAGGCTT the switch fluorescence ratio was 1.01 ± 0.026.

Work on TTTTAGGGAA yielded a switch fluorescence ratio of 1.03 ± 0.035.

TTTTAGGTCC gave a switch fluorescence ratio of 0.977 ± 0.023.

TTTTAGTACC was tested, and the switch fluorescence ratio was 1.018 ± 0.0081.

TTTTAGTTTG showed a switch fluorescence ratio of 1.01 ± 0.035.

TTTTATAAAT was tested, and the switch fluorescence ratio was 1.02 ± 0.0071.

Work on TTTTATAATA yielded a switch fluorescence ratio of 1.05 ± 0.034.

TTTTATACGT gave a switch fluorescence ratio of 1.01 ± 0.016.

In the case of TTTTATAGAA, the switch fluorescence ratio is reported as 1.0092 ± 0.00051.

In the case of TTTTATAGAT, the switch fluorescence ratio is reported as 0.977 ± 0.015.

TTTTATAGCA showed a switch fluorescence ratio of 1.02 ± 0.059.

TTTTATAGGG showed a switch fluorescence ratio of 0.948 ± 0.027.

TTTTATCAA showed a switch fluorescence ratio of 1.07 ± 0.12.

TTTTATCACT gave a switch fluorescence ratio of 1.03 ± 0.034.

TTTTATCCGT was tested, and the switch fluorescence ratio was 1.06 ± 0.066.

For TTTTATCGGG, the switch fluorescence ratio was 0.971 ± 0.016.
